This test concerns the target fluorescein-labelled mouse EAG1 eag domain (FL-eag) (mouse) (UniProt Q60603). Kind of test: fluorescence polarisation. For orientation: Fluorescence polarisation rises when a labelled molecule tumbles more slowly, as on binding a larger partner.

Broadly, the Kd is the equilibrium constant for the complex coming apart. Low values mean a tighter complex, high ones a looser complex. For “mouse EAG1 (mEAG1) CNBHD (residues 552-724) (from UniProt Q60603 552-724) (domain or fragment)”, the Kd stood at 13.2 µM.

The values are drawn from PMC3910112.
